Data as given in paper PMC5201196.

Molecular target: protein G´e (protein G prime e, extended)
Experiment: MST

**Q.** IgG (antibody) was tested. Which Kd did it give?
**A.** 9.4 nM
